Assay results as given in patent US20170173125A1.
Where no end group is shown, it is not given here.

Legend:
[1] = target: TCRs of CD8+CD40Ig Tregs (CD8+CD45RClow Tregs from CD40Ig-treated long-term allograft bearing LEW.1A recipients); experiment: PE and APC tetramer double staining, flow cytometry, 10 µg/mL, 1 hour at 4° C.
[2] = target: TCRs of naive splenic CD8+CD45RClow Tregs; experiment: as above
[3] = target: TCRs of CD8+CD40Ig Tregs (CD8+CD45RClow Tregs from CD40Ig-treated long-term allograft bearing LEW.1A recipients); experiment: cell-based or functional assay
[4] = target: TCRs of CD8+CD40Ig Tregs (CD8+CD45RClow Tregs from CD40Ig-treated long-term allograft bearing LEW.1A recipients); experiment: BV421 control tetramer staining, flow cytometry, 10 µg/mL

B1: MHC class I tetramer RT1.A^a/Bu31-10 (peptide-MHC, part only; not given: MHC heavy chain and b2m, part only)
peptide: YLRYDSDVGEYR
modifications: also: bound in MHC class I RT1.A^a tetramer with streptavidin-PE or -APC
- percent of Bu31-specific (tetramer-stained) cells among CD8+CD40Ig Tregs, graft [1]: 1.11%
- percent of Bu31-specific (tetramer-stained) cells among CD8+CD40Ig Tregs, spleen [1]: 0.281%
- precursor frequency (tetramer-stained cells) in naive splenic CD8+CD45RClow Tregs [2]: 0.187%

B2: peptide Bu31 (peptide)
peptide: YLRYDSDVGEYRAVTE
- CD25 expression at the cell surface of CD8+CD40Ig Tregs after 6 days with matured syngeneic pDCs, fold vs. no peptide [3]: 1.67 fold

B3: control tetramer RT1.A^a/MTF-E (peptide-MHC, part only; not given: MHC heavy chain and b2m, part only)
peptide: ILFPSSERLISNR
modifications: also: bound in MHC class I RT1.A^a tetramer with streptavidin-BV421
- percent non-specific staining among Bu31-10-specific cells [4]: 1.6%
